From paper PMC11316045

Legend:
[1] = anti-Flag immunofluorescence, also with HSP90B1/DAPI co-staining; conditions: glycan lost; control: wild type
[2] = FACS of cell surface PD-L1, H460; conditions: glycan lost; control: wild type
[3] = anti-Flag immunofluorescence, H460 and PD-L1 KO cells; conditions: glycan lost; control: untreated

Substance | localisation_or_trafficking [1] | localisation_or_trafficking [2] | localisation_or_trafficking [3]
PD-L1: N35Q | no change | no change | 
PD-L1: N192Q | no change | no change | 
PD-L1: N200Q | no change | no change | 
PD-L1: N219Q | changes | decreases | 
PD-L1: tunicamycin (5μg/ml) |  |  | changes
